From US20090238823A1 (published 2009)
Numbering of substitutions follows the chain as printed. Values belong to the binder of their own block, whether it stands above or below them.

Experiments:
[1] = biological target: T1, Human TSLP (mammalian produced) (human, UniProt Q969D9 29-159); assay: SPR (Biacore 3000), antibody captured by anti-human Fc gamma, TSLP in solution, 25 C
T1 construct: also called Hu TSLP; huTSLPwtpHF
Procedure: (§1) The surface plasmon resonance experiments described in this patent application were conducted at 25° C. using a Biacore 3000 instrument (Biacore International AB, Uppsala, Sweden) equipped with a CM4 sensor chip. Anti-Fcγ specific capture antibodies were covalently immobilized to two flow cells on the CM4 chip using standard amine-coupling chemistry with HBS-EP as the running buffer. Briefly, each flow cell was activated with a 1:1 (v/v) mixture of 0.1 M NHS and 0.4 M EDC. AffiniPure Goat Anti-Human IgG, Fcγ Fragment Specific antibody (Jackson ImmunoResearch Inc. West Grove, Pa.) at 30 ug/ml in 10 mM sodium acetate, pH 5.0 was immobilized with a target level of 3,000 RUs on two flow cells. Residual reactive surfaces were deactivated with an injection of 1 M ethanolamine. The running buffer was then switched to HBS-EP+0.1 mg/ml BSA for all remaining steps.
(§2) The following antibodies were tested. […] No antibody was captured on the control flow cell surface. Human, cyno, or murine TSLP at various concentrations, along with buffer blanks were then flown over the two flow cells. The concentration ranges for human and cyno TSLP were from 0.44-100 nM while the concentration range for murine TSLP was from 8.2-6000 nM. A flow rate of 50 ul/min was used and a 2 minute association phase followed by a 10-30 minute dissociation phase. After each cycle the surfaces were regenerated with a 30 second injection of 10 mM glycine pH 1.5. Fresh antibody was then captured on the test flow cell to prepare for the next cycle.

[2] = biological target: T2, Cynomolgus TSLP (mammalian produced) (cynomolgus); assay: as above
T2 construct: The Biacore construct is not specified beyond mammalian production; also called Cyno TSLP; cynomolgus TSLPwtpHF
T2 chain: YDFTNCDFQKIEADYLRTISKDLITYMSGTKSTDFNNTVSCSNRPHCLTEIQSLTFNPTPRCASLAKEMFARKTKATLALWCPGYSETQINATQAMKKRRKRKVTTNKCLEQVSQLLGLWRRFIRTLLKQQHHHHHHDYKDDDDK
Procedure: as §1, §2

[3] = biological target: T3, Murine TSLP (murine, UniProt Q9JIE6 20-140); assay: SPR (Biacore 3000), antibody captured by anti-human Fc gamma, TSLP in solution
T3 construct: also called Mu TSLP
T3 sequence (looked up): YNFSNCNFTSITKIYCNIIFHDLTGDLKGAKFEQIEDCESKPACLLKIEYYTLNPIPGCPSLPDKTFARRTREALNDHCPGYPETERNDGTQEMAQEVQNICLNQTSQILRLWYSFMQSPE

[4] = biological target: T3, Murine TSLP; assay: SPR (Biacore 3000), antibody captured by anti-human Fc gamma, TSLP in solution, 25 C
Procedure: as §1, §2

B1: A2 IgG1 (antibody, V domains shown)
VH: EVQLVESGGVVVQPGGSLRLSCAASGFTFDDFTMHWVRQAPGKGLEWVSLISWDGGSTYYADSVKGRFTISRDNSKNSLYMQMNSLRTEDSALYYCARGPYYYFYGMDVWGQGTTVTVSS
VL: SSELTQDPAVSVALGQTVRITCQGDSLRTYYASWYQQKPGQAPILVISDKNNRPSGIPDRFSGSSSGNTASLTITGAQAEDEADYYCNSRDSSDNHLVVFGGGTKLTVL
notes: also called L2H2
Kd [1]: 0.203 nM | koff [1]: 0.000349 s⁻¹ | Kd [2]: 0.0468 nM | koff [2]: 0.000104 s⁻¹

B3: A3 IgG4 (antibody, V domains shown)
VH: QVQLVQSGAEVKKPGASVKVSCKASGYTFTDYYMYWVRQAPGQGPEWMGWINPNSGGTNYVQKFQGRVTMTRDTSISTAYMELSRMRSDDTAVYYCARDGGSSGWPLFAYWGLGTLVTVSS
VL: QSVLTQPPSVSGAPGQRVTISCTGSSSNIGAGFDVHWYQQLPGTAPKLLIYDNNNRPSGVPDRFSGSKSGTSASLAITGLQAEDEADYYCQSYDSNLSGSIVVFGGGTKLTVL
notes: also called L3H3
Kd [1]: 0.17 nM | koff [1]: 0.00027 s⁻¹

Further lines, with some results ahead:

Kd [1]: 0.157 nM | koff [1]: 0.000285 s⁻¹ | Kd [2]: 0.0376 nM | koff [2]: 9.42e-05 s⁻¹
B2: A2 IgG2 (antibody, V domains shown)
VH: B1 VH
VL: B1 VL
notes: also called L2H2
binding result [3]: no binding (tested: murine TSLP 8.2-6000 nM)

Kd [1]: 0.34 nM | koff [1]: 0.00033 s⁻¹
B4: A4 IgG4 (antibody, V domains shown)
VH: QVQLVQSGAEVKKPGASVKVSCKASGYIFTGDYMHWVRQAPGQGLEWMGWINPNSGGTNHARKFQGRVTMTRDTSISTAYMELSRLRSDDTAVYYCVRDRGTSGWPLFDYWGQGTLVTVSS
VL: B3 VL with Q40L, Y51F
notes: also called L4H4

Kd [2]: 0.0512 nM | Kd [4]: 377 nM
B5: A5 IgG2 (antibody, V domains shown)
VH: QMQLVESGGGVVQPGRSLRLSCAASGFTFRTYGMHWVRQAPGKGLEWVAVIWYDGSNKHYADSVKGRFTITRDNSKNTLNLQMNSLRAEDTAVYYCARAPQWELVHEAFDIWGQGTMVTVSS
VL: SYVLTQPPSVSVAPGQTARITCGGNNLGSKSVHWYQQKPGQAPVLVVYDDSDRPSWIPERFSGSNSGNTATLTISRGEAGDEADYYCQVWDSSSDHVVFGGGTKLTVL
notes: also called L5H5
